± gives the uncertainty stated by the source.
Assay: protein stability index of a GFP-peptide fusion (yeast GPS) (PSI 1-4); higher = more stable; sorted into four equal gates, so the index is relative within each strain
In short: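 Plasmids isolated from each sorting gate were PCR-amplified and Illumina-sequenced, and barcodes assigned the reads to strains. The gates, four of equal size, were set by GFP/Cherry fluorescence ratio on mid-log cultures in leucine-free medium. These cultures were yeast carrying a pooled library of tiled 17-residue yeast protein peptides fused downstream of GFP on a plasmid that also expresses Cherry. The protein stability index is the sum of every gate's read frequency times its gate number.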

Sequence | protein stability index (doa10∆) | protein stability index (pdr5∆) | protein stability index (san1∆) | protein stability index (ubr1∆)
YGIFGEGVEYSFLHVDD [POP8] | 2.25 ± 0.084 | 2.31 ± 0.072 | 1.92 ± 0.12 | 2.71 ± 0.049
TRDVEPENLQVTSEKYP [BRR2] | 2.75 ± 0.1 | 3.35 ± 0.18 | – | 3.13 ± 0.11
NIVKQNEGIDLDTYRER [SMC2] | 3.13 ± 0.13 | 3.51 ± 0.12 | 3.24 ± 0.079 | 3.41 ± 0.086
SGITGECLQAYIFFGPI [RET1] | 2.6 ± 0.059 | 2.72 ± 0.064 | 2.64 ± 0.076 | 2.79 ± 0.051
LLPFVKGNVGFVFTNEP [RPP0] | – | 1.77 ± 0.26 | – | 1.84 ± 0.17
DYLNAELGEFFVNGVAT [FAS2] | 3.09 ± 0.093 | 2.79 ± 0.24 | 3.06 ± 0.12 | 3.35 ± 0.08
ETATSERNASEVRDATL [GRR1] | 3.53 ± 0.19 | 3.45 ± 0.19 | – | 3.52 ± 0.19
EVGPWGSARTRWEMEAF [FAS2] | 1.23 ± 0.077 | 1.62 ± 0.25 | – | 1.6 ± 0.13
ANRVTDKLTRVHDKIWC [PRE3] | 2 ± 0.12 | 2.42 ± 0.085 | 2.38 ± 0.063 | 2.34 ± 0.095
APIGKHYVVLDTNVVLQ [DIS3] | 2.93 ± 0.13 | 2.81 ± 0.14 | 2.04 ± 0.16 | 2.31 ± 0.12
NVTSFMPFWKFFMKNFP [SRB8] | 1.47 ± 0.053 | 1.63 ± 0.046 | 1.43 ± 0.068 | 1.35 ± 0.041
KEKIEKLSKSATESIKN [SMC1] | 3.28 ± 0.12 | 2.99 ± 0.21 | 2.97 ± 0.079 | 3.07 ± 0.072
LEQFMERNNIGEICKNY [YDL116W/NUP84] | 2.69 ± 0.11 | 2.6 ± 0.076 | 2.72 ± 0.14 | 2.44 ± 0.069
NQSTIYEDEELSRAEYD [LIN1] | 3.12 ± 0.086 | 3.2 ± 0.087 | 3.15 ± 0.058 | 3.27 ± 0.058
AGQNATVAVMSYSGYDI [RET1] | 1.32 ± 0.039 | 1.38 ± 0.045 | 1.33 ± 0.086 | 1.66 ± 0.036
IRITSLQGDLTFTKKCL [SIR4] | 2.87 ± 0.068 | 2.71 ± 0.078 | 2.81 ± 0.085 | 2.79 ± 0.059
KRLTEDERIEKELNTER [CDC53] | – | 2.89 ± 0.16 | 2.33 ± 0.1 | 2.31 ± 0.12
VYKDNLSFIQVRIDLGT [RPO31] | 1.28 ± 0.071 | 1.58 ± 0.074 | 1.79 ± 0.1 | 1.52 ± 0.082
DRNNSTNQIFQSRRYNL [SIN4] | 2.78 ± 0.047 | 2.93 ± 0.049 | 2.71 ± 0.053 | 2.83 ± 0.039
RVEKIPEIPLVVSTDLE [RPL4A] | – | 2.93 ± 0.3 | – | 2.77 ± 0.22
EQNSSSAKPSQIPTVSS [SIR4] | 2.99 ± 0.062 | 2.97 ± 0.051 | 2.97 ± 0.048 | 3.04 ± 0.05
VMSIESLVEVVFYRGMT [FAS1] | 1.89 ± 0.1 | 2.12 ± 0.06 | 1.39 ± 0.12 | 2.66 ± 0.097
ISELPPQIRQEIEQLDQ [YGL172W/NUP49] | 2.98 ± 0.084 | 3.06 ± 0.061 | 2.65 ± 0.088 | 3.06 ± 0.049
GKTGLSNMILGSVELST [YML103C/NUP188] | 2.24 ± 0.056 | 2.57 ± 0.086 | 2.34 ± 0.069 | 2.33 ± 0.042
AKICALLFFNFSHSLTT [NUT1] | 1.43 ± 0.045 | 1.45 ± 0.036 | 1.4 ± 0.051 | 1.27 ± 0.026
KKINAKEKLIGWYHSGP [RPN8] | 2.91 ± 0.085 | 3.13 ± 0.096 | 3.33 ± 0.052 | 3.13 ± 0.06
VLARISPELSLQRHLSL [RRP43] | 2.47 ± 0.054 | 2.04 ± 0.072 | 2.02 ± 0.093 | 2.47 ± 0.05

Sequence | protein stability index (doa10∆) | protein stability index (pdr5∆) | protein stability index (san1∆) | protein stability index (ubr1∆)
KRPIESGTSSDPDTKKV [YIL149C/MLP2] | 3.35 ± 0.079 | 3.2 ± 0.053 | 3.2 ± 0.062 | 3.29 ± 0.072
INIDDLLYELTAFKATV [YJL039C/NUP192] | 2.58 ± 0.052 | 2.67 ± 0.055 | 2.41 ± 0.054 | 2.44 ± 0.043
LINGHRAPQQSVLQLFQ [SMC2] | 3 ± 0.095 | 2.48 ± 0.069 | 2.5 ± 0.063 | 2.42 ± 0.051
KPLGTTRAMEYLKFREL [RPB2] | 2.49 ± 0.065 | 2.86 ± 0.077 | 3.13 ± 0.068 | 2.9 ± 0.056
SLDIRHDFIKGLIMLNL [NUT1] | 2.18 ± 0.064 | 1.56 ± 0.068 | 1.31 ± 0.13 | 1.72 ± 0.057
ELIQKYLGDGPRLCRQI [RPT2] | – | – | 2.76 ± 0.2 | –
GPRAVLTRQPTEGRSRD [RET1] | 3.43 ± 0.091 | 3.35 ± 0.066 | 3.1 ± 0.067 | 3.34 ± 0.057
KLLKSLKNTKYFQQTTI [PRP8] | 2.12 ± 0.076 | 2.7 ± 0.085 | 2.34 ± 0.068 | 2.59 ± 0.064
ESPVDVQSQVDSSSVSE [FAS1] | 3.11 ± 0.06 | 3.3 ± 0.073 | 3.14 ± 0.051 | 3.23 ± 0.042
IDIINKLILHAIHIFES [YML103C/NUP188] | 1.5 ± 0.053 | 1.56 ± 0.058 | 1.42 ± 0.065 | 1.38 ± 0.034
LAAPKKLNDSQRKTVNS [POP1] | 3.18 ± 0.075 | 2.98 ± 0.12 | 3.02 ± 0.065 | 3.34 ± 0.075
SVVKKEDNKYAIAGNST [RGR1] | 3.1 ± 0.084 | 2.63 ± 0.072 | 3.02 ± 0.054 | 2.92 ± 0.054
PIDDTMTLLTDSLRKLY [MTW1] | 1.89 ± 0.067 | 2.52 ± 0.062 | 1.73 ± 0.093 | 2.22 ± 0.052
RRERRLIFGTIASKMSL [RPT3] | 2.31 ± 0.051 | 2.48 ± 0.068 | 2.36 ± 0.048 | 2.45 ± 0.038
KVDWAREHFEKTVAVDS [RPL3] | 1.8 ± 0.18 | – | 1.54 ± 0.15 | 1.9 ± 0.15
GPSAMRLSRCIRDNKLV [RPC82] | 1.94 ± 0.14 | 2.23 ± 0.13 | 1.58 ± 0.15 | 2.15 ± 0.099
QNLRKELLIYKKSQCKK [YIL149C/MLP2] | 1.75 ± 0.078 | 2.35 ± 0.086 | 1.84 ± 0.086 | 1.63 ± 0.068
FPTTSHESLVTTLLRKK [MED8] | 2.12 ± 0.12 | 1.82 ± 0.12 | 1.72 ± 0.14 | 1.95 ± 0.12
SRGESDDSLNRLAQNDG [RPS21A] | 2.72 ± 0.19 | 2.9 ± 0.14 | – | –
SVDMSALKDPQTDADRV [RIP1] | 3.27 ± 0.079 | 3.68 ± 0.23 | 3.2 ± 0.23 | 3.56 ± 0.15
SNKKETKKKRKPTEVND [ITC1] | 3.15 ± 0.078 | 3.31 ± 0.074 | 3.26 ± 0.07 | 3.23 ± 0.062
HRDKNKMDMICRNINRK [DIS3] | 2.32 ± 0.081 | 2.99 ± 0.17 | 2.41 ± 0.083 | 3.33 ± 0.12
EIENATKDIFPLQNIHV [RPS1A] | 2.1 ± 0.086 | 2.36 ± 0.27 | 1.11 ± 0.29 | 2.25 ± 0.083
SDSEDSDAKEQHQSLSR [ESC2] | 2.81 ± 0.14 | 3.19 ± 0.15 | 3.04 ± 0.084 | 2.52 ± 0.083
EDHDVHSNESSNETIGE [IRR1] | 3 ± 0.079 | 3.2 ± 0.086 | 3.28 ± 0.058 | 3.06 ± 0.075
TPRGNHWMGSSVSGSPR [YMR129W/POM152] | 3.25 ± 0.077 | 3.39 ± 0.077 | 3.01 ± 0.053 | 3.13 ± 0.064
SGYNQEDSMIMNQSSID [RPB2] | 2.46 ± 0.11 | 2.67 ± 0.12 | – | 2.84 ± 0.067
